# Entries after “also recorded” stand apart in the source; their conditions may differ. Where two headings read alike, the source gives them in different places.
# Experiments:
# HUVEC cells = test: Mitogenic activity on HUVEC cells (cell counting); type: cell-based; details: wells coated with 100 ng/ml, 72 hours of culture, triplicate
# Protocol: The cells used were HUVEC cells (Clonetics) used between passages 1 to 5. Each of the wells of a 48-well culture plate (Costar) was incubated for 1 night at 4° C. with a solution of HARP (100 ng/ml), of purified HARP peptide (100 ng/ml) or solely the negative control buffer. After rinsing the wells with a PBS solution, the cells were inoculated at the rate of 2×10^4 cells per cm^2 in the DMEM culture medium containing 2% of fetal calf serum. Each quantitative determination was performed in triplicate.
# Induction of cellular proliferation was assessed by counting the cells after 72 hours of culture.
# soleus muscle = type: in vivo, Wistar rat; details: 1 μg injected in 50 μl into crushed rat soleus, 4 days
# [1] = system: human mononucleated cells of the peripheral blood (PBMCs); test: Incorporation of tritiated thymidine in PBMCs (proliferation); type: cell-based; details: for activation response of PBMCs compared to the HARP protein: 1 ng/ml HARP, 1 μg/ml peptides (FIG. 6)
# Protocol: The PBMCs were cultured for 7 days in RPMI culture medium containing 10% fetal calf serum in the absence of or in the presence of 1 ng/ml HARP protein or 1 μg/ml of peptides 1 or 2. The incorporation of tritiated thymidine was determined as described above.
# Human mononucleated cells originating from different healthy donors were isolated from peripheral blood after centrifugation on a Ficoll-Hypaque pad (Pharmacia Biotech) in accordance with the manufacturer's instructions. The cells were washed then cultured in RPMI 1640 medium supplemented by 10% heat-inactivated fetal calf serum (56° C., 30 min), 100 units/ml of penicillin and 100 μg/ml of streptomycin. The cells were inoculated at the rate of 10^6 cells per ml in a 96-well (round bottoms) culture plate (Costar). They were cultured for 7 days in the presence or not of human recombinant HARP protein produced in E. coli at the concentration of 100 ng/ml. In the last 18 hours of culture, 1 μCi of tritiated thymidine was added to each of the wells. The radioactivity incorporated in the cell nuclei was then measured using a scintillation counter.
# IL-6 = test: Expression of IL-6 by PBMCs (ELISA); type: cell-based, human
# Protocol: (§1) Quantitative determination of these cytokines was performed using an ELISA test from R&D.
# Quantitative determination of these cytokines was performed after 7 days of incubation using an ELISA test from R&D.
# (§2) The cells were isolated from peripheral blood of normal subjects (blood donors) and collected in a Vacutainer tube containing EDTA. Mononucleated cells were separated by ficoll gradient, counted and adjusted to 10^6 per ml. The cells were incubated for 3 or 7 days at 37° C. in humid atmosphere with 5% CO2 in the presence of variable concentrations of HARP ranging from 1 to 1000 ng/ml or other peptides which are mentioned in the legends of the figures.
# [2] = system: cytokines of inflammation (TNF-alpha, IL-1, IL-6); test: Expression/production of the cytokines of inflammation; type: cell-based, human
# [3] = system: PBMCs treated by tetanus toxin
# IL-2 = IL-2 levels after incubation of PBMCs with HARP; type: cell-based, human; details: after incubation of PBMCs with HARP factor
# [4] = system: PBMCs treated by an anti-CD3
# phosphacan = phosphacan (Rattus norvegicus, UniProt Q62656); details: cited from earlier work
# Chain of phosphacan (Q62656 25-1616 isoform Q62656-3 limits assumed): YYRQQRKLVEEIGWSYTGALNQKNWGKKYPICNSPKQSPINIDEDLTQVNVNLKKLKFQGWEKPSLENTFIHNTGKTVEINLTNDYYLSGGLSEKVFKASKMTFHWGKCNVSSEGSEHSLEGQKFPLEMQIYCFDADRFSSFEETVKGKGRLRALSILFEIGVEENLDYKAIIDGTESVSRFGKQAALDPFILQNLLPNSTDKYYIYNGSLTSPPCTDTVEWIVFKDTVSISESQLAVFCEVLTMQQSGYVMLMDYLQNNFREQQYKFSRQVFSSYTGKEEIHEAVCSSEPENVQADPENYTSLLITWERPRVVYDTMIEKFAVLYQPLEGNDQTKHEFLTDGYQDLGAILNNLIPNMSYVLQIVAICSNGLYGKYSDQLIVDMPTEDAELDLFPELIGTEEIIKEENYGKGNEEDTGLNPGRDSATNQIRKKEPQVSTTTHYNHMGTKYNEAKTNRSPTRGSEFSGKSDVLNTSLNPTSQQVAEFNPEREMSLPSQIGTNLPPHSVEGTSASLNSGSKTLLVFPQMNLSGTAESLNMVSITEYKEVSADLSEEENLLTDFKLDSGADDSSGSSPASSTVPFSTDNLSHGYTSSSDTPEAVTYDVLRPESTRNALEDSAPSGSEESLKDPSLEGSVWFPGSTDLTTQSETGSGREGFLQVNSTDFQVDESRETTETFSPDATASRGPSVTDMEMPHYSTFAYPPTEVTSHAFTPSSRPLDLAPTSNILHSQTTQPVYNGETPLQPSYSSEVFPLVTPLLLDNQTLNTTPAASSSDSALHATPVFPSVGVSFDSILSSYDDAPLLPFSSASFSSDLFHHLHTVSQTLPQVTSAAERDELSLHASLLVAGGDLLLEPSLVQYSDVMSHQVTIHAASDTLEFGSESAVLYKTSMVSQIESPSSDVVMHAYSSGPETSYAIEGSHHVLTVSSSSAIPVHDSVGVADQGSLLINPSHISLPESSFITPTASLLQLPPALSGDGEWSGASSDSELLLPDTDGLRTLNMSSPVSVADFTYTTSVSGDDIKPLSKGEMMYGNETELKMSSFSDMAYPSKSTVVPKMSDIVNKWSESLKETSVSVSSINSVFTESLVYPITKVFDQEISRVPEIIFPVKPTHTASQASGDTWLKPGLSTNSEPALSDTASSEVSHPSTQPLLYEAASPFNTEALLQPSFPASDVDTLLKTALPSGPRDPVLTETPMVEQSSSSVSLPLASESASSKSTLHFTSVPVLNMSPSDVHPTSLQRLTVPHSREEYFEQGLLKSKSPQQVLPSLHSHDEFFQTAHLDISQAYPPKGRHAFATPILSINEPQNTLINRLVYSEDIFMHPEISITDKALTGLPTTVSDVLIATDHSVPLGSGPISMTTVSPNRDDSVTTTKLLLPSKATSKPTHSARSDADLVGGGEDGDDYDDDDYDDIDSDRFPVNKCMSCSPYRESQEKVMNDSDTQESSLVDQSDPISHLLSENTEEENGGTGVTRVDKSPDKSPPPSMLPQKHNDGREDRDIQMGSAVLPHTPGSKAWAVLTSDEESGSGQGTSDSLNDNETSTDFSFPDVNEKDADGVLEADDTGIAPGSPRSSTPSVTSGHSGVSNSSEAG
# IL-1β = test: Expression of IL-1 by PBMCs (ELISA); type: cell-based, human; details: HARP 1 to 1000 ng/ml, 3 or 7 days
# Protocol: as §1, §2
# TNF-α = test: Expression of TNF-α by PBMCs (ELISA); type: cell-based, human; details: HARP 1 to 1000 ng/ml, 3 or 7 days
# Protocol: as §1, §2
# [5] = system: lymphoid cells (PBMC culture); test: Determination of the amplified lymphoid cell population in a PBMC culture; type: cell-based, human; details: HARP 1 μg/ml, PBMC culture 5 days
# Protocol: The cells were isolated from peripheral blood of normal subjects (blood donors) and collected in a Vacutainer tube containing EDTA. Mononucleated cells were separated by ficoll gradient, counted and adjusted to 10^6 per ml. The cells were incubated for 5 days at 37° C. in humid atmosphere with 5% CO2 in the presence of HARP or other peptides at concentrations which are mentioned in each of the Examples described.
# Table II presents the effects of the HARP molecule tested at a concentration of 1 μg/ml on the proliferation of lymphoid cells.
# syndecan-3 = syndecan-3 (Rattus norvegicus, UniProt P33671); details: read-out: apparent Kd; cited from earlier work
# Chain of syndecan-3 (P33671 45-442): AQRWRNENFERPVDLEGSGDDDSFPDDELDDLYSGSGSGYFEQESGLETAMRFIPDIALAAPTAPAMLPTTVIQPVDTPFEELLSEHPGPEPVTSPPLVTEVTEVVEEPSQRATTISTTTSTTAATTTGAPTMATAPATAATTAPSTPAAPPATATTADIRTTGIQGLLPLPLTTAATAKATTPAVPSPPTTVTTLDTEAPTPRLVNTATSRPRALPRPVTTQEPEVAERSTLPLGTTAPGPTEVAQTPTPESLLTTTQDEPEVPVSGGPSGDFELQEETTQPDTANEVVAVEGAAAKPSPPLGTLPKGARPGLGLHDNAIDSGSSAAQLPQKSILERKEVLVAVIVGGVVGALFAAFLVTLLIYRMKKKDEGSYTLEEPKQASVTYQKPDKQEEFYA
# NIH 3T3 cells = details: read-out: Kd of strong affinity HARP binding sites; cited from earlier work
# [6] = peptides, 7 days of incubation (FIG. 10)
# [7] = added to PBMCs, result not shown
# [8] = 7 days, anti-CD3 1/100, HARP 1 ng/ml
molecule,measurement,setting,value
"GKKEKPEKKVKKSD [HARP peptide, N terminal peptide (amino acids 1-14) of human HARP obtained by recombination in a eukaryote expression system]",Number of cells,HUVEC cells,"12,000 ± 14,000"
NH2-AEAGKKEKPEKKVKKSDCGEW-COOH (H-AEAGKKEKPEKKVKKSDCGEW-OH) [Peptide 1],number of mononucleated cells in treated muscle versus peptide 2 or PBS,soleus muscle,much higher
same,activation response of PBMCs compared to the HARP protein,[1]; 7 days,close to half that of HARP
same,activation response of PBMCs compared to the control,"[1]; 7 days, 1 μg/ml peptide (FIG. 6)",more than two times higher
same,expression of IL-6,IL-6; [6],capable of stimulating the expression of IL-6
"NH2-AESKKKKKEGKKQEKMLD-COOH (H-AESKKKKKEGKKQEKMLD-OH) [Peptide 2, peptide corresponding to the terminal COOH part of HARP; 18 amino acids]",activation response of PBMCs compared to the HARP protein,[1]; 7 days,close to two times higher
same,expression of IL-6,IL-6; [6],capable of stimulating the expression of IL-6
angiogenin: molecule presenting a homologous protein domain [reference compound],expression of the inflammatory cytokines,[2]; [7],Augmentation of the expression
tetanus toxin [reference compound],incorporated tritiated thymidine,[3],"43,000±500 cpm"
same,stimulation of incorporation of tritiated thymidine in relation to the control,[3],71 times
"HARP: angiogenic growth factor; human recombinant HARP protein produced in E. coli (protein, UniProt P21246 33-168, looked up) Pleiotrophin: GKKEKPEKKVKKSDCGEWQWSVCVPTSGDCGLGTREGTRTGAECKQTMKTQRCKIPCNWKKQFGAECKYQFQAWGECDLNTALKTRTGSLKRALHNAECQKTVTISKPCGKLTKPKPQAESKKKKKEGKKQEKMLD",Number of cells,HUVEC cells,"129,000 ± 26,000"
same,cell death,"HIV; HARP 100 ng/ml, PBMCs from an AIDS patient",noteworthy cell death
same,HARP concentration at which production of viral antigen p24 is maximal,"HIV; PBMCs from an AIDS patient (CD4<200/mm^3), 3 days, HARP 0.1-100 ng/ml",1 ng/mL
same,IL-2 levels,IL-2,no increase
same,incorporated tritiated thymidine,[4]; [8],3500 cpm
same,stimulation of incorporation of tritiated thymidine in relation to the control,[4]; [8],5.8 times
same,incorporation of thymidine,[4]; HARP 10 and 100 ng/ml in the presence of anti-CD3,a weaker and a very low incorporation
same,cellular mortality,[4]; HARP alone at 10 and 100 ng/ml,not seen
same,Kd,"phosphacan; read-out: Kd, binding sites of strong affinity",0.25 nM
same,Kd,"phosphacan; read-out: Kd, binding sites of weak affinity",3 nM
same,cell mortality,[3],high cell mortality
same,incorporated tritiated thymidine,[3]; 7 days,3500±200 cpm
same,stimulation of incorporation of tritiated thymidine in relation to the control,[3]; 7 days,5.8 times
same,expression of IL-1β,IL-1β,capable of inducing in a dose-dependent manner
same,concentration at which active on the proliferation of lymphocytes,[1],~10 pM
same,increase in the number of cells in relation to the untreated control,"[1]; HARP 100 ng/ml, experiment no. 7",2.9 times
same,HARP concentration at which maximum effect is attained,[1]; dose-response 0.1 to 500 ng/ml,1 ng/mL
same,expression of TNF-α,TNF-α,capable of inducing in a dose-dependent manner
same,expression of the inflammatory cytokines,[2]; HARP molecule denatured,No expression
same,stimulation of the production of cytokines of inflammation,[2]; in vitro and in vivo,more than 100 times
same,CCD2 positive cells,[5],95%
same,CCD4+ CD45RA+ cells,[5],15%
same,CCD4+ CD45RO+ cells,[5],49%
same,CCD4 positive cells,[5],68%
same,CCD8 positive cells,[5],22%
same,CCD16/56 positive cells,[5],18%
same,CCD19 positive cells,[5],4%
same,CCD25 positive cells,[5],47%
same,CCD45RA positive cells,[5],34%
same,CCD45RO positive cells,[5],64%
same,Variation of CCD4+ CD45RA+ versus control,[5],−31%
same,Variation of CCD4+ CD45RO+ versus control,[5],+133%
same,Variation of CCD45RO versus control,[5],+113%
same,RA/RO (CCD4+ CD45RA+ / CCD4+ CD45RO+),[5]; CD4+ cells,0.3 ratio
same,RA/RO (CCD45RA / CCD45RO),[5]; all cells,0.5 ratio
same,expression of IL-6,"IL-6; HARP 1 to 1000 ng/ml, 3 or 7 days",capable of inducing in a dose-dependent manner
same,Kd,syndecan-3,0.8 nM
same,Kd,NIH 3T3 cells,0.6 nM
"tat protein: molecule presenting a homologous protein domain (protein, UniProt P04608 1-86, looked up) Protein Tat: MEPVDPRLEPWKHPGSQPKTACTNCYCKKCCFHCQVCFITKALGISYGRKKRRQRRRAHQNSQTHQASLSKQPTSQPRGDPTGPKE",expression of the inflammatory cytokines,[2]; [7],Augmentation of the expression
"MK: protein that exhibits 50% homology in amino acids with HARP (protein, UniProt P21741 21-143, looked up) Midkine: VAKKKDKVKKGGPGSECAEWAWGPCTPSSKDCGVGFREGTCGAQTQRIRCRVPCNWKKEFGADCKYKFENWGACDGGTGTKVRQGTLKKARYNAQCQETIRVTKPCTPKTKAKAKAKKGKGKD",stimulation of tritiated thymidine incorporation in PBMCs,[1]; MK 0.1 to 500 ng/ml,no induction; also recorded: No stimulation

# Reference: patent publication US6932973B2, “Peptides which stimulate the expression of the cytokines of inflammation and promote tissue regeneration” (Centre National de la Recherche Scientifique—CNRS, priority 1999, dated 2005)
